Laboratory results from patent US20110105397A1, “METHOD FOR TREATING HEART FAILURE WITH STRESSCOPIN-LIKE PEPTIDES” (priority 2009, published 2011).
Where a SMILES comes first, the peptide text is derived from it. Where no end group is shown, it is not given here. Side-chain parts run from the residue outwards. The star is where a group is joined. acetamide = acetamide linker between the Cys residue and the PEG; Succinimide(1-Et,3-yl) = CCN1C(=O)CC(*)C1=O

Tests used:
[1] = target: T1, human CRHR2 (Homo sapiens, UniProt Q13324); experiment: cAMP assay, h-CRHR2 transfected SK-N-MC cells; format: cell-based; conditions: for EC50 / Log DR [M]: Table 13; for EC50: cysteine mutation, N-ethylmaleimide capping, pegylation, read-out: pA50 (converted); for Log DR [M]: h-SCP control pA50 minus test compound pA50 within the same assay batch
T1 construct: expressed in transfected cells
T1 sequence (Q13324 1-411): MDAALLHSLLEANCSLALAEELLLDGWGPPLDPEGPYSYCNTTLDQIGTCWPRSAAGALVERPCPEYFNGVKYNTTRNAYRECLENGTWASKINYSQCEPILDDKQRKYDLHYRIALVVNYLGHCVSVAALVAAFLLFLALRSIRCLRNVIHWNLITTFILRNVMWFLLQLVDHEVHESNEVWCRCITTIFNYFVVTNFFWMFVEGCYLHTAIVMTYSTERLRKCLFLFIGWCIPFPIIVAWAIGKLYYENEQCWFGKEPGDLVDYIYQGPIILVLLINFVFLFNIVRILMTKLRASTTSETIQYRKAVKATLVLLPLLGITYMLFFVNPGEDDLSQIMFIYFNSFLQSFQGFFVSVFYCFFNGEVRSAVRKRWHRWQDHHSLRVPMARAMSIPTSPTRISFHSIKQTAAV
How it was run: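 SK-N-MC cells stably expressing human CRHR2 were treated with peptides (1 pM to 1 μM) for 60 min at 37 °C in IBMX-containing medium, with 10 μM forskolin as positive control. Cells were lysed with 0.5 M HCl and cAMP measured by [125I]-cAMP competition flash plate. A50 came from Hill-equation fits, normalised to h-SCP maximum.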

[2] = Nonclinical pharmacokinetics in dogs; design: species or system dog; conditions: dog, in vivo
Description: (§1) A sandwich immunoassay was developed using an affinity purified goat polyclonal antibody, specific to h-SCP that was pre-coated onto a microplate with integrated electrodes. h-SCP molecules present in the sample will bind to the capture polyclonal antibody coated on the plate. After washing away any unbound substances, a sulfo-tagged mouse monoclonal anti-h-SCP antibody was added. This conjugated antibody will bind to the h-SCP molecules captured on the microplate and the quantity of analyte was determined by electrochemiluminescence. The amount of signal generated is directly proportional to the h-SCP concentration in the sample or standard. The standard curve range is 3.125-1600 pg/mL with a quantifiable range from 10-800 pg/mL. A sample volume of 25 μL (in duplicate) is required for this assay. This immunoassay is specific for human and dog stresscopin and human urocortin III (h-UCN3). […] After completion of the analysis, based on a comparison of reference standards between the ELISA and HPLC method, a correction factor of 1.57 was applied to all bioanalytical data.
(§2) The nonclinical pharmacokinetics of h-SCP (SEQ ID NO:1) and pegylated stresscopin-like peptides were studied in rats, dogs, and cynomolgus monkeys (cyno). Nonclinical pharmacokinetic studies focused on characterization of IV infusion at pharmacologically relevant dose levels, supplemented with IV and SC bolus and toxicokinetic analysis.

[3] = test system: HF dogs; experiment: Single SC bolus injection in HF dogs; format: in vivo, dog
Description: After reaching a steady state plasma concentration, the heart rate remained fairly stable. […] The target plasma concentration of about 60 ng/mL is reached in about 2 hours and 10 minutes after the time point of injection, then leveling off at about 100 ng/mL after about 3, still maintaining its level at about 6 hours after injection. The stresscopin-relative concentration of 60 ng/mL and of 100 ng/mL of a SEQ ID NO:102 peptide is 600 pg/mL and 1000 pg/mL, respectively.

[4] = Nonclinical pharmacokinetics in rats; design: species or system rat; conditions: rat, in vivo; for % F (Bioavailability) / AUC0-∞ / Tmax: sc
Description: as §1, §2

[5] = target: T2, human corticotrophin releasing hormone receptor type 2 (CRHR2) (human, UniProt Q13324 1-411); experiment: cell-based or functional assay
T2 sequence (looked up): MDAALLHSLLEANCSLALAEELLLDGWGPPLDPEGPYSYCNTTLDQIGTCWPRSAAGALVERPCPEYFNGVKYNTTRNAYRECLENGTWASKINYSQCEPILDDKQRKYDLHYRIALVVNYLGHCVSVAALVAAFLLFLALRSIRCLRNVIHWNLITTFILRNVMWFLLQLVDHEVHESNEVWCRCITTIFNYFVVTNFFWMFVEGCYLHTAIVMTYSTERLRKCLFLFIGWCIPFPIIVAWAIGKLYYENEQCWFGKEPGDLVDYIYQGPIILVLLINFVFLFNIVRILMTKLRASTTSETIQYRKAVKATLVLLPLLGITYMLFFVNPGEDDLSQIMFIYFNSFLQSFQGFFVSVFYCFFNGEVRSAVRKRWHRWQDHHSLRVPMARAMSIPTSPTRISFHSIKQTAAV

[6] = target: T3, human corticotrophin releasing hormone receptor type 2 (CRHR2) (human) (UniProt Q13324); experiment: cell-based or functional assay
T3 sequence (looked up): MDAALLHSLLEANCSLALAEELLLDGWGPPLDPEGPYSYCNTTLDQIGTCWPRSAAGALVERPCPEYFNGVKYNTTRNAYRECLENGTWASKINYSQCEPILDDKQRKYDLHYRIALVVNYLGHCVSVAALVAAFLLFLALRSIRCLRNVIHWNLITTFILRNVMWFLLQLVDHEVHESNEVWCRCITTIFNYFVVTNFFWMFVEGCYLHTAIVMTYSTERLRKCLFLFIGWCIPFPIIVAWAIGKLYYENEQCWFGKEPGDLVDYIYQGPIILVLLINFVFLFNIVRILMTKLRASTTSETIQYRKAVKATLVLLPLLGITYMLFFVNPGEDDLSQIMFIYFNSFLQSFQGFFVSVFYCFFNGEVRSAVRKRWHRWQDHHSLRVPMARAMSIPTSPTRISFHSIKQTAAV

[7] = target: T3, human corticotrophin releasing hormone receptor type 2 (CRHR2) (human); experiment: radioligand competition against [125I]-anti-sauvagine-30, membranes of SK-N-MC cells with human CRHR2
[8] = target: T4, human corticotrophin releasing hormone receptor type 1 (CRHR1) (human, UniProt P34998 24-415); experiment: cell-based or functional assay
T4 sequence (looked up): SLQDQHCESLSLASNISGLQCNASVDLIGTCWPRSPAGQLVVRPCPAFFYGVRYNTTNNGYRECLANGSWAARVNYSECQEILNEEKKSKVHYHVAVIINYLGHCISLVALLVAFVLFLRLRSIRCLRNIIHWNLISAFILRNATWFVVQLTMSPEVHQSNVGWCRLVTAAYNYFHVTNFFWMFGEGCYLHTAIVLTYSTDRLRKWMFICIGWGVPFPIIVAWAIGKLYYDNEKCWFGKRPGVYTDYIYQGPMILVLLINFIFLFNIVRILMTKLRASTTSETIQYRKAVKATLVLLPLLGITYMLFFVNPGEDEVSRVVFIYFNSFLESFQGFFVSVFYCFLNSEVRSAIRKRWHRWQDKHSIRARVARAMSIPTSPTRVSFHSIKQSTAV

TKFTLSLDVPTNIMNLLFNIAKAKNLRC(-IA-PEG MW20000)QA AANAH LMAQI-NH2 (TKFTLSLDVPTNIMNLLFNIAKAKNLRC([acetamide-PEG 20 kDa])QAAANAHLMAQI-NH2) [SEQ ID NO: 102]
pA50 in the presence of anti-sauvagine-30 ([1]; 100 nM anti-sauvagine-30, maximal response constrained to 100%): ~6.89 | agonist potency ratio to stresscopin of SEQ ID NO:1 reduced by a factor ([1]; 10^(9.40-8.15)): 17.78 | nH ([1]; Table 14): 1.05 | pA50 ([1]; Table 14): 8.15 | αmax ([1]; Table 14, % of the maximum response obtained to h-SCP): 111.1% | Vz (volume of distribution) ([2]; iv, 15 ug/kg): 0.034 ± 0.007 L/kg | % F (Bioavailability) ([2]; sc, 5 ug/kg): 71% | AUC0-∞ ([2]; sc, 5 ug/kg): 3510 ± 270 ng·h/mL | Cmax ([2]; sc, 5 ug/kg): 24.6 ± 2.6 ng/mL | Tmax ([2]; sc, 5 ug/kg): 32 ± 8 h | % F (Bioavailability) ([2]; sc, 15 ug/kg): 41% | AUC0-∞ ([2]; sc, 15 ug/kg): 6089 ± 1808 ng·h/mL | Tmax ([2]; sc, 15 ug/kg): 5 ± 1 h | heart rate ([3]; HF dogs, bolus SC injection 30 μg/kg): declined over the first few hours | LVEF and CO performance ([3]; HF dogs, bolus SC injection 30 μg/kg, up to 4 hours): significantly increased | stresscopin-relative concentration ([3]; of 60 ng/mL of SEQ ID NO:102 peptide): 600 pg/mL | stresscopin-relative concentration ([3]; of 100 ng/mL of SEQ ID NO:102 peptide): 1000 pg/mL | Vz (volume of distribution) ([4]; iv, 15 ug/kg): 0.51 ± 0.023 L/kg | % F (Bioavailability) ([4]; 15 ug/kg): 36% | AUC0-∞ ([4]; 15 ug/kg): 342 ± 107 ng·h/mL | Tmax ([4]; 15 ug/kg): 7 ± 1 h | % F (Bioavailability) ([4]; 150 ug/kg): 20% | AUC0-∞ ([4]; 150 ug/kg): 1914 ± 464 ng·h/mL | Tmax ([4]; 150 ug/kg): 6.3 ± 1.8 h

CC[C@H](C)[C@H](NC(=O)[C@H](CCC(N)=O)NC(=O)[C@H](C)NC(=O)[C@H](CCSC)NC(=O)[C@H](CC(C)C)NC(=O)[C@H](Cc1c[nH]cn1)NC(=O)[C@H](C)NC(=O)[C@H](CC(N)=O)NC(=O)[C@H](CSC1CC(=O)N(CC)C1=O)NC(=O)[C@H](C)NC(=O)[C@H](C)NC(=O)[C@H](CCC(N)=O)NC(=O)[C@H](C)NC(=O)[C@H](CCCNC(=N)N)NC(=O)[C@H](CC(C)C)NC(=O)[C@H](CC(N)=O)NC(=O)[C@H](CCCCN)NC(=O)[C@H](C)NC(=O)[C@H](CCCCN)NC(=O)[C@H](C)NC(=O)[C@@H](NC(=O)[C@H](CC(N)=O)NC(=O)[C@H](Cc1ccccc1)NC(=O)[C@H](CC(C)C)NC(=O)[C@H](CC(C)C)NC(=O)[C@H](CC(N)=O)NC(=O)[C@H](CCSC)NC(=O)[C@@H](NC(=O)[C@H](CC(N)=O)NC(=O)[C@@H](NC(=O)[C@@H]1CCCN1C(=O)[C@@H](NC(=O)[C@H](CC(=O)O)NC(=O)[C@H](CC(C)C)NC(=O)[C@H](CO)NC(=O)[C@H](CC(C)C)NC(=O)[C@@H](NC(=O)[C@H](Cc1ccccc1)NC(=O)[C@H](CCCCN)NC(=O)[C@@H](N)[C@@H](C)O)[C@@H](C)O)C(C)C)[C@@H](C)O)[C@@H](C)CC)[C@@H](C)CC)C(N)=O (some centres unmarked) [SEQ ID NO: 45, TKFTLSLDVPTNIMNLLFNIAKAKNLRAQAAC(-NES)NAH LMAQI-NH2] (H-TKFTLSLDVPTNIMNLLFNIAKAKNLRAQAAC(Succinimide(1-Et,3-yl))NAHLMAQI-NH2; N-terminus assumed)
EC50 [1]: 0.331 nM | Log DR [M] [1]: −0.01

TKFTLCLDVPTNIMNLLFNIAKAKNLRAQAAANAHLMAQI-NH2 [SEQ ID NO: 7, TKFTLCLDVPTNIMNLLFNIAKAKNLRAQAAANAHLMAQI-NH2]
EC50 [1]: 25.1 nM | Log DR [M] [1]: 2.08

CC[C@H](C)[C@H](NC(=O)[C@H](CCC(N)=O)NC(=O)[C@H](C)NC(=O)[C@H](CCSC)NC(=O)[C@H](CC(C)C)NC(=O)[C@H](Cc1c[nH]cn1)NC(=O)[C@H](C)NC(=O)[C@H](CC(N)=O)NC(=O)[C@H](C)NC(=O)[C@H](C)NC(=O)[C@H](C)NC(=O)[C@H](CCC(N)=O)NC(=O)[C@H](C)NC(=O)[C@H](CCCNC(=N)N)NC(=O)[C@H](CC(C)C)NC(=O)[C@H](CC(N)=O)NC(=O)[C@H](CSC1CC(=O)N(CC)C1=O)NC(=O)[C@H](C)NC(=O)[C@H](CCCCN)NC(=O)[C@H](C)NC(=O)[C@@H](NC(=O)[C@H](CC(N)=O)NC(=O)[C@H](Cc1ccccc1)NC(=O)[C@H](CC(C)C)NC(=O)[C@H](CC(C)C)NC(=O)[C@H](CC(N)=O)NC(=O)[C@H](CCSC)NC(=O)[C@@H](NC(=O)[C@H](CC(N)=O)NC(=O)[C@@H](NC(=O)[C@@H]1CCCN1C(=O)[C@@H](NC(=O)[C@H](CC(=O)O)NC(=O)[C@H](CC(C)C)NC(=O)[C@H](CO)NC(=O)[C@H](CC(C)C)NC(=O)[C@@H](NC(=O)[C@H](Cc1ccccc1)NC(=O)[C@H](CCCCN)NC(=O)[C@@H](N)[C@@H](C)O)[C@@H](C)O)C(C)C)[C@@H](C)O)[C@@H](C)CC)[C@@H](C)CC)C(N)=O (some centres unmarked) [SEQ ID NO: 50, TKFTLSLDVPTNIMNLLFNIAKAC(-NES)N LRAQA AANAH LMAQI-NH2] (H-TKFTLSLDVPTNIMNLLFNIAKAC(Succinimide(1-Et,3-yl))NLRAQAAANAHLMAQI-NH2; N-terminus assumed)
EC50 [1]: 0.331 nM | Log DR [M] [1]: −0.01

H-TKFTLSLDVPTNIMNLLFNIAKAKNLRAQAACNAHLMAQI-NH2 [SEQ ID NO: 33, TKFTLSLDVPTNIMNLLFNIAKAKNLRAQAACNAHLMAQI-NH2]
EC50 [1]: 0.851 nM | Log DR [M] [1]: 0.45

KFTLSLDVPTNIMNLLFNIAKAKNLRAQAAANAHLMAQI-NH2 [Stresscopin-like peptide with shortened amino acid sequence, 39 aa, SEQ ID NO: 107]
pA50 [5]: 9.25 -log10(M)

LSLDVPTNIMNLLFNIAKAKNLRAQAAANAHLMAQI-NH2 [Stresscopin-like peptide with shortened amino acid sequence, 36 aa, SEQ ID NO: 109]
pA50 [5]: 7.34 -log10(M)

TLSLDVPTNIMNLLFNIAKAKNLRAQAAANAHLMAQI-NH2 [Stresscopin-like peptide with shortened amino acid sequence, 37 aa, SEQ ID NO: 108]
pA50 [5]: 8.49 -log10(M)

IVLSLDVPIGLLQILLEQARARAAREQATTNARILARV-NH2 [human urocortin 2]
pA50 [6]: 9.51 -log10(M) | pKI [7]: 7.74 -log10(M) | pA50 [8]: 6.02 -log10(M)
